# Reference: US20110044980A1 (AbbVie / Abbott, published 2011)
# Tests used:
# NKG2D [1] = biological target: T1, NKG2D (human, UniProt P26718 1-216); experiment: flow cytometry (FACSCalibur), activated NK cells, 10 ug/ml, R-PE GMFI on CD56+ live cells
# T1 construct: whole, on cells; also called NKGD
# T1 sequence (looked up): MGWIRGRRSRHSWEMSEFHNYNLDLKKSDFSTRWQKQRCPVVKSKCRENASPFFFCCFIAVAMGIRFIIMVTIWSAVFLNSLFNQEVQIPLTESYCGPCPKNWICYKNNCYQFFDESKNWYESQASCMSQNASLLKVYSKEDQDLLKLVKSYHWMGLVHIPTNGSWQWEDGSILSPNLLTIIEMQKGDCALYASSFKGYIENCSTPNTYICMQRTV
# NKG2D [2] = biological target: T1, NKG2D; experiment: flow cytometry (FACSCanto), cells carrying the target (line not given), 2 ug/mL
Binder,FACS Geometric Mean N-terminal (NKG2D [1]),FACS Geometric Mean C-terminal (NKG2D [1]),other results
"DVD1052 (bispecific antibody, DVD-Ig; the entries are the dual variable domains (outer VD - linker - inner VD) without constant domains; Outer AB121, inner AB001; also called NKG2D / CD-20 DVD-Ig; DVD1052H + DVD1052L) VH: QVQLVESGGGLVKPGGSLRLSCAASGFTFSSYGMHWVRQAPGKGLEWVAFIRYDGSNKYYADSVKGRFTISRDNSKNTLYLQMNSLRAEDTAVYYCAKDRGLGDGTYFDYWGQGTTVTVSSASTKGPSVFPLAPQVQLQQPGAELVKPGASVKMSCKASGYTFTSYNMHWVKQTPGRGLEWIGAIYPGNGDTSYNQKFKGKATLTADKSSSTAYMQLSSLTSEDSAVYYCARSTYYGGDWYFNVWGAGTTVTVSA VL: QSALTQPASVSGSPGQSITISCSGSSSNIGNNAVNWYQQLPGKAPKLLIYYDDLLPSGVSDRFSGSKSGTSAFLAISGLQSEDEADYYCAAWDDSLNGPVFGGGTKLTVLGQPKAAPSVTLFPPQIVLSQSPAILSPSPGEKVTMTCRASSSVSYIHWFQQKPGSSPKPWIYATSNLASGVPVRFSGSGSGTSYSLTISRVEAEDAATYYCQQWTSNPPTFGGGTKLEIKR",36.4,–,–
"DVD1054 (bispecific antibody, DVD-Ig; dual variable domains only; Outer AB121, inner AB006; also called DVD1054H + DVD1054L) VH: QVQLVESGGGLVKPGGSLRLSCAASGFTFSSYGMHWVRQAPGKGLEWVAFIRYDGSNKYYADSVKGRFTISRDNSKNTLYLQMNSLRAEDTAVYYCAKDRGLGDGTYFDYWGQGTTVTVSSASTKGPSVFPLAPQVQLQQSGAELVRPGSSVKISCKASGYAFSSYWMNWVKQRPGQGLEWIGQIWPGDGDTNYNGKFKGKATLTADESSSTAYMQLSSLASEDSAVYFCARRETTTVGRYYYAMDYWGQGTSVTVSS VL: QSALTQPASVSGSPGQSITISCSGSSSNIGNNAVNWYQQLPGKAPKLLIYYDDLLPSGVSDRFSGSKSGTSAFLAISGLQSEDEADYYCAAWDDSLNGPVFGGGTKLTVLGQPKAAPSVTLFPPDILLTQTPASLAVSLGQRATISCKASQSVDYDGDSYLNWYQQIPGQPPKLLIYDASNLVSGIPPRFSGSGSGTDFTLNIHPVEKVDAATYHCQQSTEDPWTFGGGTKLEIKR",28.3,–,–
"DVD1214 (bispecific antibody, DVD-Ig; dual variable domains only; Outer AB121, inner AB064; also called DVD1214H + DVD1214L) VH: QVQLVESGGGLVKPGGSLRLSCAASGFTFSSYGMHWVRQAPGKGLEWVAFIRYDGSNKYYADSVKGRFTISRDNSKNTLYLQMNSLRAEDTAVYYCAKDRGLGDGTYFDYWGQGTTVTVSSASTKGPSVFPLAPQVQLQESGPGLVKPSQTLSLTCTVSGYSISSDFAWNWIRQPPGKGLEWMGYISYSGNTRYQPSLKSRITISRDTSKNQFFLKLNSVTAADTATYYCVTAGRGFPYWGQGTLVTVSS VL: QSALTQPASVSGSPGQSITISCSGSSSNIGNNAVNWYQQLPGKAPKLLIYYDDLLPSGVSDRFSGSKSGTSAFLAISGLQSEDEADYYCAAWDDSLNGPVFGGGTKLTVLGQPKAAPSVTLFPPDIQMTQSPSSMSVSVGDRVTITCHSSQDINSNIGWLQQKPGKSFKGLIYHGTNLDDGVPSRFSGSGSGTDYTLTISSLQPEDFATYYCVQYAQFPWTFGGGTKLEIKR",33.8,–,–
"DVD1215 (bispecific antibody, DVD-Ig; dual variable domains only; Outer AB064, inner AB121; also called DVD1215H + DVD1215L) VH: QVQLQESGPGLVKPSQTLSLTCTVSGYSISSDFAWNWIRQPPGKGLEWMGYISYSGNTRYQPSLKSRITISRDTSKNQFFLKLNSVTAADTATYYCVTAGRGFPYWGQGTLVTVSSASTKGPSVFPLAPQVQLVESGGGLVKPGGSLRLSCAASGFTFSSYGMHWVRQAPGKGLEWVAFIRYDGSNKYYADSVKGRFTISRDNSKNTLYLQMNSLRAEDTAVYYCAKDRGLGDGTYFDYWGQGTTVTVSS VL: DIQMTQSPSSMSVSVGDRVTITCHSSQDINSNIGWLQQKPGKSFKGLIYHGTNLDDGVPSRFSGSGSGTDYTLTISSLQPEDFATYYCVQYAQFPWTFGGGTKLEIKRTVAAPSVFIFPPQSALTQPASVSGSPGQSITISCSGSSSNIGNNAVNWYQQLPGKAPKLLIYYDDLLPSGVSDRFSGSKSGTSAFLAISGLQSEDEADYYCAAWDDSLNGPVFGGGTKLTVLG",–,31.7,–
"DVD1053 (bispecific antibody, DVD-Ig; dual variable domains only; Outer AB001, inner AB121; also called CD-20 / NKG2D DVD-Ig; DVD1053H + DVD1053L) VH: QVQLQQPGAELVKPGASVKMSCKASGYTFTSYNMHWVKQTPGRGLEWIGAIYPGNGDTSYNQKFKGKATLTADKSSSTAYMQLSSLTSEDSAVYYCARSTYYGGDWYFNVWGAGTTVTVSAASTKGPSVFPLAPQVQLVESGGGLVKPGGSLRLSCAASGFTFSSYGMHWVRQAPGKGLEWVAFIRYDGSNKYYADSVKGRFTISRDNSKNTLYLQMNSLRAEDTAVYYCAKDRGLGDGTYFDYWGQGTTVTVSS VL: QIVLSQSPAILSPSPGEKVTMTCRASSSVSYIHWFQQKPGSSPKPWIYATSNLASGVPVRFSGSGSGTSYSLTISRVEAEDAATYYCQQWTSNPPTFGGGTKLEIKRTVAAPSVFIFPPQSALTQPASVSGSPGQSITISCSGSSSNIGNNAVNWYQQLPGKAPKLLIYYDDLLPSGVSDRFSGSKSGTSAFLAISGLQSEDEADYYCAAWDDSLNGPVFGGGTKLTVLG",–,31.7,–
"DVD1055 (bispecific antibody, DVD-Ig; dual variable domains only; Outer AB006, inner AB121; also called DVD1055H + DVD1055L) VH: QVQLQQSGAELVRPGSSVKISCKASGYAFSSYWMNWVKQRPGQGLEWIGQIWPGDGDTNYNGKFKGKATLTADESSSTAYMQLSSLASEDSAVYFCARRETTTVGRYYYAMDYWGQGTSVTVSSASTKGPSVFPLAPQVQLVESGGGLVKPGGSLRLSCAASGFTFSSYGMHWVRQAPGKGLEWVAFIRYDGSNKYYADSVKGRFTISRDNSKNTLYLQMNSLRAEDTAVYYCAKDRGLGDGTYFDYWGQGTTVTVSS VL: DILLTQTPASLAVSLGQRATISCKASQSVDYDGDSYLNWYQQIPGQPPKLLIYDASNLVSGIPPRFSGSGSGTDFTLNIHPVEKVDAATYHCQQSTEDPWTFGGGTKLEIKRTVAAPSVFIFPPQSALTQPASVSGSPGQSITISCSGSSSNIGNNAVNWYQQLPGKAPKLLIYYDDLLPSGVSDRFSGSKSGTSAFLAISGLQSEDEADYYCAAWDDSLNGPVFGGGTKLTVLG",–,21.2,–
"AB121 (antibody, V domains shown, also called NKGD (KYK-2.0); anti-NKG2D parent antibody) VH: QVQLVESGGGLVKPGGSLRLSCAASGFTFSSYGMHWVRQAPGKGLEWVAFIRYDGSNKYYADSVKGRFTISRDNSKNTLYLQMNSLRAEDTAVYYCAKDRGLGDGTYFDYWGQGTTVTVSS VL: QSALTQPASVSGSPGQSITISCSGSSSNIGNNAVNWYQQLPGKAPKLLIYYDDLLPSGVSDRFSGSKSGTSAFLAISGLQSEDEADYYCAAWDDSLNGPVFGGGTKLTVLG",–,–,FACS Geometric Mean (NKG2D [2]): 284; FACS Geometric Mean (NKG2D [1]): 31.1
